Source: patent publication US20260183373A1 (Genentech, published 2026)
Numbering of substitutions follows the chain as printed. Names may count otherwise. Where two headings read alike, the source gives them in different places.

B1: IgG-CTF-2 format, neprolysin, crenezumab G33S(HC) (antibody)
heavy: not shown
light: DIVMTQSPLSLPVTPGEPASISCRSSQSLVYSNGDTYLHWYLQKPGQSPQLLIYKVSNRFSGVPDRFSGSGSGTDFTLKISRVEAEDVGVYYCSQSTHVPWTFGQGTKVEIKRTVAAPSVFIFPPSDEQLKSGTASVVCLLNNFYPREAKVQWKVDNALQSGNSQESVTEQDSKDSTYSLSSTLTLSKADYEKHKVYACEVTHQGLSSPVTKSFNRGEC
notes: Variant of m9
B2: IgG-CTF-2 format, neprolysin, crenezumab (antibody)
heavy: not shown
light: B1 light
notes: Human IgG1 with NEP fused to the C-terminus of both heavy chains; also called crenezumab-NEP fusion
B3: IgG-CTF-2 format, neprolysin, crenezumab G33S(HC)/S56F(LC) (antibody)
heavy: not shown
light: B1 light with S61F
notes: Variant of m9
B4: anti-gD Control (antibody, human IgG1, kappa)
heavy chain with neprolysin fused to its C-terminus: not shown
light chain: DIQMTQSPSSLSASVGDRVTITCRASASVDSYGNSFIHWYQQKPGKAPKLLIYRASDLESGVPSRFSGSGSGTDFTLTISSLQPEDFATYYCQQNYADPFTFGQGTKVEIKRTVAAPSVFIFPPSDEQLKSGTASVVCLLNNFYPREAKVQWKVDNALQSGNSQESVTEQDSKDSTYSLSSTLTLSKADYEKHKVYACEVTHQGLSSPVTKSFNRGEC
B5: IgG-CTF-2 format, neprolysin, solanezumab (antibody)
heavy: not shown
light: B1 light with I2V, P15L, E17Q, V30I, N33D, D35N, T36A, Y41F, Q50R
notes: Human IgG1 with NEP fused to the C-terminus of both heavy chains; also called solanezumab-NEP fusion
B6: RF61 chimeric antibody variant R50D LC, S62P L95N T100aA D100cE M100eF HC (mouse IgG2a constant domains) (antibody, V domains shown)
VH: QLQLQESGPGLVKPSETLSLTCTVSGGSISRGSHYWGWIRQPPGKGLEWIGSIYYSGNTYFNPPLKSRVTISVDTSKNQFSLKLSSVTAADTAVYYCARNGPDDYALEGFDVWGQGTTVTVSS
VL: QSVLTQPPSASGTPGQRVTISCSGSSSNIGSNYVYWYQQLPGTAPKLLIYDNNQRPSGVPDRFSGSKSGTSASLAISGLRSEDEADYYCATWDDSLSAVIFGGGTKLTVL
notes: Round 3 variant, one of the eight; copies: 2 + 2
B7: RF61 chimeric antibody variant R50D Y34F LC, S62P D99H M100eF HC (mouse IgG2a constant domains) (antibody, V domains shown)
VH: B6 VH with N100L, D104H, A106T, E108D
VL: B6 VL with Y35F
notes: as for B6
B8: RF61 chimeric antibody variant R50D Y34F LC, S62P L95N D100cE M100eF HC (mouse IgG2a constant domains) (antibody, V domains shown)
VH: B6 VH with A106T
VL: B6 VL with Y35F
notes: as for B6
B9: RF61 chimeric antibody variant R50N LC, L95N D99H T100aA HC (mouse IgG2a constant domains) (antibody, V domains shown)
VH: B6 VH with P64S, D104H, E108D, F110M
VL: B6 VL with D51N
notes: as for B6
B10: RF61 chimeric antibody variant R50N LC, S62P L95N D99H T100aA D100cE M100eF HC (mouse IgG2a constant domains) (antibody, V domains shown)
VH: B6 VH with D104H
VL: B6 VL with D51N
notes: as for B6
B11: RF61 chimeric antibody variant R50N Y34F LC, S62P D99H D100cE M100eF HC (mouse IgG2a constant domains) (antibody, V domains shown)
VH: B6 VH with N100L, D104H, A106T
VL: B6 VL with Y35F, D51N
notes: as for B6
B12: Fab-NTF(LC)-1 format, MMP3-D4K-4, RF61-D (Fab)
heavy: QLQLQESGPGLVKPSETLSLTCTVSGGSISRGSHYWGWIRQPPGKGLEWIGSIYYSGNTYFNPSLKSRVTISVDTSKNQFSLKLSSVTAADTAVYYCARLGPDDYTLDGMDVWGQGTTVTVSSASTKGPSVFPLAPSSKSTSGGTAALGCLVKDYFPEPVTVSWNSGALTSGVHTFPAVLQSSGLYSLSSVVTVPSSSLGTQTYICNVNHKPSNTKVDKKVEPKSCDKTHTDYKDDDDK
light: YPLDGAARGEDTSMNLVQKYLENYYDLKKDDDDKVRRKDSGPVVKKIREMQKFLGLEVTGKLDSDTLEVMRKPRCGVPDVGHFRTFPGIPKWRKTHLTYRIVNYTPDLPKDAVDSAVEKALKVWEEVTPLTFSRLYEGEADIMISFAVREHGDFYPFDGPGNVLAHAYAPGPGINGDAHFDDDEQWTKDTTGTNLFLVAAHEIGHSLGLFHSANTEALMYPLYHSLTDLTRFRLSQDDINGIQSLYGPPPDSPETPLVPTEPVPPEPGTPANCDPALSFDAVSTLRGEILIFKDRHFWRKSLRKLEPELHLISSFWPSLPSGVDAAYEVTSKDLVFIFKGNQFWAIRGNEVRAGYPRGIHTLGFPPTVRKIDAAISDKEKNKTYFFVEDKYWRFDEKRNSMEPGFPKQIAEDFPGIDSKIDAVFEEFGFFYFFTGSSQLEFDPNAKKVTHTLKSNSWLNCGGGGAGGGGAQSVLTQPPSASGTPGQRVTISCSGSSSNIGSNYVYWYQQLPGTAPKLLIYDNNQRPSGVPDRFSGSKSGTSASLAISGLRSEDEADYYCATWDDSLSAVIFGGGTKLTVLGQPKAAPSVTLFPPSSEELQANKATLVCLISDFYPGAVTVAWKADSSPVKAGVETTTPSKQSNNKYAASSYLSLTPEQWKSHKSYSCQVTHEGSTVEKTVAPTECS
notes: MMP3-D4K-4 fused to the N-terminus of the light chain; also called RF61-D Fab fusion

Columns and labels:
[1] = target: T1, Aβ(1-40) (UniProt P05067 672-711); test: cell-based or functional assay
[2] = target: T2, Aβ(1-28) (UniProt P05067 672-699); test: SPR (Biacore T200): fusion captured on a protein A chip, Aβ(1-28) injected as analyte
T2 construct: domain: Aβ(1-28); also called amyloid-β 1-28
Method: Aβ surface plasmon resonance: Solution affinity constants for anti-Aβ antibodies were assessed on a Biacore™ T200. […] Affinity constants were obtained through kinetic fitting using the Biacore Evaluation Software.

[3] = target: T1, Aβ(1-40); test: cell-based or functional assay; remark: listed apart in the source
[4] = target: T3, Aβ(1-42) (UniProt P05067 672-713); test: cell-based or functional assay
[5] = target: T1, Aβ(1-40); test: cell-based or functional assay; remark: listed apart in the source
[6] = target: T3, Aβ(1-42); test: cell-based or functional assay; remark: listed apart in the source
[7] = target: T4, human IgG1 Fc (human, UniProt P01857-1 104-330 = IgG part, limits assumed); test: SPR: chimeric antibody captured by anti-mouse antibody on CM5 chip, human IgG1 Fc injected
T4 construct: domain: Fc; also called Fc domain of human IgG1

[8] = target: T5, anti-HER2 antibody 4D5, IgG1 subtype; test: SPR: 4D5 IgG1 captured on Protein L chip, RF61-MMP3 fusion constructs injected; monovalent affinity of the targeting arm
T5 construct: Captured on a Protein L chip as the IgG1 target of the RF61-MMP3 fusion constructs
Method: RF61 surface plasmon resonance: RF61 affinity for human IgG was assessed with a Biacore 8K+ or T200. For rounds one and two of affinity maturation, the Fc domain of human IgG1 was captured on a Series S Protein A chip according to the manufacturer's protocols. Serial dilutions of the RF61 Fab variants were prepared in HBS-P+ buffer. The dilutions were passed over the chip for 4 min, followed by a 5 min dissociation step. Variants were assessed using the response units at the point of late analyte binding normalized to Fc capture level. […] Serial dilutions of human IgG1 Fc in HBS-P+ were passed over the chip for 10 minutes, followed by a 6 min dissociation step. Affinity constants were obtained through kinetic fitting using the Biacore Evaluation Software (GE). […] A single 1000 nM concentration of each binding ablation variant was passed over the chip for 10 minutes, followed by a 6 min dissociation step. […] Serial dilutions of the RF61-MMP3 fusion constructs were prepared in HBS-P+ buffer. The dilutions were flowed over the chip for 3 min, followed by 8 min of dissociation. […] Affinity constants were determined as described above.

| Binder | EC50 of Aβ(1-40) cleavage (intact Aβ by ELISA) [1] [nM] | Kd [2] [nM] | koff [2] [s⁻¹] | kon [2] [M⁻¹ s⁻¹] | binding result [7] | further results |
| --- | --- | --- | --- | --- | --- | --- |
| B1 | 1.6 | 1.8 | 0.0013 | 750000 |  |  |
| B2 | 1.3 | 4.7 | 0.0041 | 880000 |  | EC50 of Aβ(1-40) cleavage (intact Aβ by ELISA) [3]: 1.1 nM; EC50 of Aβ(1-42) cleavage (intact Aβ by ELISA) [4]: 5 nM; EC50 of Aβ(1-40) cleavage, fold lower than the solanezumab-NEP fusion [5]: 3 fold; potency of Aβ cleavage, fold over the non-targeted control [5]: ~15 fold; potency of Aβ cleavage, fold over the non-targeted control [6]: ~9 fold |
| B3 | 2.3 | 0.8 | 0.0006 | 750000 |  |  |
| B4 | 11 |  |  |  |  |  |
| B5 | 3.9 | 0.5 | 0.00014 | 300000 |  |  |
| B6 |  |  |  |  | binds |  |
| B7 |  |  |  |  | binds |  |
| B8 |  |  |  |  | binds |  |
| B9 |  |  |  |  | binds |  |
| B10 |  |  |  |  | binds |  |
| B11 |  |  |  |  | binds |  |
| B12 |  |  |  |  |  | Kd [8]: 104 nM |
